Measured values published in patent publication US20060193821, “Aptamers to the human IL-12 cytokine family and their use as autoimmune disease therapeutics” (published 2006).
Where a chain is given by its changes, count along the chain named.

B1: ARC890 (mixed)
RNA: CCAGGCAAGGUAAUUGGGGAGUGCGGGCGGGGUGG
modifications: deoxy A,G; 2'-OMe C,U
B2: ARC889 (mixed)
RNA: B1 RNA with C1A, G35U
modifications: deoxy A,G; 2'-OMe C,U
B3: ARC796 (mixed)
RNA: UAAUUGGGGAGUGCGGGCGGGGGGUCGAUCG
modifications: deoxy A,G; 2'-OMe C,U
B4: ARC797 (mixed)
RNA: GGUGGGGAGUGCGGGCGGGGGGUCGCC
modifications: deoxy A,G; 2'-OMe C,U
B5: ARC897 (mixed)
RNA: GAUGUUGGCAAGUAAUUGGGGAGUGCGGGCGGGGUUCAUC
modifications: deoxy A,G; 2'-OMe C,U; 3'-idT
B6: ARC1469 (mixed)
RNA: GGCAAGUAAUUGGGGAGUGCGGGCGGGG
modifications: dRmY; 2'-OMe at two As and one G as printed in Table 29; 3'-idT
B7: ARC1468 (mixed)
RNA: GGCAAGUAAUUGGGGAGUGCGGGCGGGG
modifications: dRmY; 3'-idT
B8: ARC1626 (mixed)
RNA: ACAGGCAAGUAAUUGGGGAGUGCGGGCGGGGUGU
modifications: ARC1544 sugars; PS at 17 linkages 5' of deoxy residues as printed in Table 29; 3'-idT [PS at 2-3, 3-4, 4-5, 6-7, 7-8, 8-9, 10-11, 11-12, 14-15, 17-18, 18-19, 19-20, 21-22, 25-26, 27-28, 28-29, 32-33; ARC1544 sugars (2'-deoxy/2'-OMe); 3'-inverted dT at 35]
B9: ARC1625 (mixed)
RNA: B8 RNA
modifications: dAmCdAdGdGmCdAdAdGmUdAdAmUmUdGmGmGdGdAdGmUdGmCmGmGdGmCdGdGmGmGmU-s-dGmU-3T (d deoxy, m 2'-OMe, s PS, 3T idT) [PS at 32-33; 2'-OMe at 2,6,10,13,14,16,17,21,23,24,25,27,30,31,32,34; 2'-deoxy at other nt 1-33; 3'-inverted dT at 35]
B10: ARC1756 (mixed)
RNA: B8 RNA
modifications: mAmC-s-dAdGdGmC-s-dAmAmGmUmA-s-dAmUmU-s-dGmGmG-s-dG-s-dA-s-dGmU-s-dGmCmGmGmGmCmGmGmGmGmUmGmU-3T (d deoxy, m 2'-OMe, s PS, 3T idT) [PS at 2-3, 6-7, 11-12, 14-15, 17-18, 18-19, 19-20, 21-22; 2'-deoxy at 3,4,5,7,12,15,18,19,20,22; 2'-OMe at other nt 1-34; 3'-inverted dT at 35]
B11: ARC1624 (mixed)
RNA: B8 RNA
modifications: dAmCdAdGdGmCdAdAdGmUdAdAmUmUdGmGmGdGdAdGmUdGmCmGmG-s-dGmC-s-dG-s-dGmGmGmUdGmU-3T (d deoxy, m 2'-OMe, s PS, 3T idT) [PS at 25-26, 27-28, 28-29; 2'-OMe at 2,6,10,13,14,16,17,21,23,24,25,27,30,31,32,34; 2'-deoxy at other nt 1-33; 3'-inverted dT at 35]
B12: ARC1623 (mixed)
RNA: B8 RNA
modifications: dAmCdAdGdGmCdAdAdGmUdAdAmUmUdGmGmG-s-dG-s-dA-s-dGmU-s-dGmCmGmGdGmCdGdGmGmGmUdGmU-3T (d deoxy, m 2'-OMe, s PS, 3T idT) [PS at 17-18, 18-19, 19-20, 21-22; 2'-OMe at 2,6,10,13,14,16,17,21,23,24,25,27,30,31,32,34; 2'-deoxy at other nt 1-33; 3'-inverted dT at 35]
B13: ARC1436 (mixed)
RNA: B8 RNA
modifications: dRmY; 2'-OMe G15; 3'-idT
B14: ARC1431 (mixed)
RNA: B8 RNA
modifications: dRmY; 2'-OMe A7; 3'-idT
B15: ARC1544 (mixed)
RNA: B8 RNA
modifications: dRmY with 2'-OMe at G16, G17, G23, G24, G29, G30; 3'-idT
B16: ARC1386 (mixed)
RNA: B8 RNA
modifications: dRmY; 3'-idT
B17: AMX86-H9 (ssRNA)
RNA: GGGAAAAGCGAAUCAUACACAAGAUGGUUCCCACGUGAAAGUGGCUAGCGAGUACCCCACUUAUGCUCCGCCAGAGACCAACCAAGGG
modifications: 2'-F C,U
B18: AMX86-F12 (ssRNA)
RNA: GGGAAAAGCGAAUCAUACACAAGAGUGUUGAAUGAGCGCUGGUGGACAGAUCUUUGGUUACAGAGCUCCGCCAGAGACCAACCGAGAA
modifications: 2'-F C,U
B19: AMX86-F11 (ssRNA)
RNA: GGGAAAAGCGAAUCAUACACAAGACCAUCGGACGAGGCGGGUCACCUUUUACGCUUUCGAGCUGGCUCCGCCAGAGACCAACCGAGAA
modifications: 2'-F C,U
B20: AMX91-H8 (ssRNA)
RNA: GGGAAAAGCGAAUCAUACACAAGAACGCAUAGUCGGAUUUACCGAUCAUUCUGUGCCUUCGUGACGCUCCGCCAGAGACCAACCGAGAA
modifications: 2'-F C,U
B21: AMX86-B10 (ssRNA)
RNA: GGGAAAAGCGAAUCAUACACAAGAGAACGAGUAUAUUUGCGCUGGCGGAGAAGUCUCUCGAAGGGAGCUCCGCCAGAGACCAACCGAGAA
modifications: 2'-F C,U
B22: AMX86-A11 (ssRNA)
RNA: GGGAAAAGCGAAUCAUACACAAGAACGGCUAGGCAUCAAUGGCCAGCAAAAAUAGUCGUGUAAUGCUCCGCCAGAGACCAACCGAGAA
modifications: 2'-F C,U
B23: AMX86-E10 (ssRNA)
RNA: GGGAAAAGCGAAUCAUACACAAGAUUGUCUCGGAUUGGUCACUCCCAUUUUUGUUCGCUUAACGGCUCCGCCAGAGACCAACCGAGAA
modifications: 2'-F C,U
B24: AMX86-A7 (ssRNA)
RNA: GGGAAAAGCGAAUCAUACACAAGAUCUCUUUGGCCGACGCAACAAUGCUCUUUUCCGACCUUGCGCUCCGCCAGAGACCAACCGAGAA
modifications: 2'-F C,U
B25: AMX86-A10 (ssRNA)
RNA: GGGAAAAGCGAAUCAUACACAAGAGUAAUGUGGGUCCCGAUGAUUCGCUGUGCGGCGUUUGUAGCUCCGCCAGAGACCAACCGAGAA
modifications: 2'-F C,U
B26: AMX86-B11 (ssRNA)
RNA: GGGAAAAGCGAAUCAUACACAAGAGUAUCAUUCGGCUGGUGGGAGAAAUCUCUGUAGAUAUAGAGCUCCGCCAGAGACCAACCGAGAA
modifications: 2'-F C,U
B27: AMX86-B7 (ssRNA)
RNA: GGGAAAAGCGAAUCAUACACAAGAAUGAAUUCCGUCCACGGGCGCCCGAUGAUGUCAGUUUUCGGCUCCGCCAGAGACCAACCGAGAA
modifications: 2'-F C,U
B28: AMX86-C9 (ssRNA)
RNA: GGGAAAAGCGAAUCAUACACAAGACUCAUGGAUAUGGCCUAGCAGCCGUGGAAGCGGUCAUUCUGCUCCGCCAGAGACCAACCGAGAA
modifications: 2'-F C,U
B29: AMX86-C5 (ssRNA)
RNA: GGGAAAAGCGAAUCAUACACAAGAGUUUUAUGUGGGUCCCGAUGAUUAACUUUAUUGGCGCAUUGCUCCGCCAGAGACCAACCGAGAA
modifications: 2'-F C,U

biological target: T1, IL-23 (human, p19/p40 heterodimer) (Homo sapiens, UniProt Q9NPF7;P29460 SEQ:20-189,SEQ:23-328); assay: filter; +tRNA; details: tags: R&D Systems, carrier free
T1 sequence (Q9NPF7 20-189, chain 1 of 2): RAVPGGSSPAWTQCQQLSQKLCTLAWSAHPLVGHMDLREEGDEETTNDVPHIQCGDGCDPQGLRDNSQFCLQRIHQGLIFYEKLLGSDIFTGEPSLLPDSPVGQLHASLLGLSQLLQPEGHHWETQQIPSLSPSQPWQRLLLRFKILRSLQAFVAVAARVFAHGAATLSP
T1 sequence (P29460 23-328, chain 2 of 2): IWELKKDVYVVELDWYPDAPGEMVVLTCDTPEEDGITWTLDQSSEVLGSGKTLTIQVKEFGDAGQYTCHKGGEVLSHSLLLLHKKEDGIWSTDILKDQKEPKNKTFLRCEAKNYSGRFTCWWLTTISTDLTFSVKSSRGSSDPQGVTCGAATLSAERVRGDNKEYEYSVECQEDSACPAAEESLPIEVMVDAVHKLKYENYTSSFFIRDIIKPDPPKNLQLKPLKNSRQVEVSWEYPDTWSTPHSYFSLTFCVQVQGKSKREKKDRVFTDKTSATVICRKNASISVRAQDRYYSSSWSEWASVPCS

Binder | Kd
B1 | 114 nM
B2 | 115 nM
B3 | 106 nM
B4 | 50 nM
B5 | 93 nM

biological target: T1, IL-23 (human, p19/p40 heterodimer); assay: filter; dot blot; DPBS with Ca and Mg, 0.1 mg/mL BSA, 30 min RT; details: tags: R&D Systems, carrier free; label: 5'-32P
Procedure: The dot blot binding assay previously described was used to characterize the relative potency of the majority of the aptamers synthesized. For KD determination, chemically synthesized aptamers were purified using denaturing polyacrylamide gel electrophoresis, 5′end labeled with γ-³²P ATP and were tested for direct binding to full human IL-23. An 8 point protein titration was used in the dot blot binding assay (either {100 nM, 30 nM, 10 nM, 3 nM, 1 nM, 300 pM, 100 pM, 0 pM} or {10 nM, 3 nM, 1 nM, 300 pM, 100 pM, 30 pM, 10 pM, 0 pM}) in Dulbecco's PBS (with Mg⁺⁺ and Ca⁺⁺) with 0.1 mg/mL BSA. KD values were calculated by fitting the equation y=(max/(1+K/protein))+yint using KaleidaGraph (KaleidaGraph v. 3.51, Synergy Software). Sequences of the ARC979 derivatives synthesized, purified and assayed for binding to IL-23 as well as the results of the protein binding characterization are tabulated below in Tables 29 and 30.

Binder | Kd
B6 | 49.8 nM
B7 | 10 nM
B8 | 0.1 nM
B9 | 0.4 nM
B10 | 0.5 nM
B11 | 0.4 nM
B12 | 0.2 nM
B13 | 15.1 nM
B14 | 10 nM
B15 | 0.9 nM

same assay, conditions: tags: R&D Systems, carrier free; label: 5'-32P; G4 (predicted)

Binder | Kd
B16 | 1 nM

biological target: T1, IL-23 (human, p19/p40 heterodimer); assay: cell_activity; TransAM STAT3; details: tags: R&D Systems, carrier free
Procedure: In summary, the cell-based assay was conducted by isolating the peripheral blood mononuclear cells (PBMCs) from whole blood using a Histopaque gradient (Sigma, St. Louis, Mo.). The PBMCs were cultured for 3 to 5 days at 37° C./5% CO₂ in Peripheral Blood Medium (Sigma) which contains PHA, supplemented with IL-2 (100 units/mL) (R&D Systems, Minneapolis, Minn.), to generate PHA Blasts. To test IL-23 aptamers, the PHA Blasts were washed twice with 1×PBS, then serum starved for four hours in RPMI, 0.20% FBS. After serum starvation, approximately 2 million cells were aliquotted into appropriately labeled eppendorf tubes. hIL-23 at a final constant concentration of 3 ng/mL (R&D Systems, Minneapolis, Minn.) was combined with a dilution series of various IL-23 aptamers as described in Example 1, and the cytokine/aptamer mixture was added to the aliquotted cells in a final volume of 100 μl and incubated at 37° C. for 10-12 minutes. The incubation reaction was stopped by adding 1 mL of ice-cold PBS with 1.5 mM Na₃VO₄. Cell lysates were made using the lysis buffer provided by the TransAM™ STAT 3 assay following the manufacturer's instructions. FIG. 20 depicts a flow summary of the protocol used for the cell based assay.
Full length clones from the rRfY selection described in Example 1A, and select minimized rRfY clones that were described in Example 2A. 1, were tested using the TransAM™ STAT3 activation assay. Table 34 summarizes the cell based assay data for IL-23 full length aptamers generated from the rRfY selections described in Example 1A. 1, each compared to the activity of their respective parent (full length) clone.

Binder | IC50
B17 | 250 nM

biological target: T1, IL-23 (human, p19/p40 heterodimer); assay: filter; SHMCK, tRNA; details: tags: R&D Systems, carrier free
Procedure: (§1) Monitoring Progress of rRfY Selection. Dot blot binding assays were performed throughout the selections to monitor the protein binding affinity of the pools. Trace ³²P-labeled RNA was combined with a dilution series of h-IL-23 and incubated at room temperature for 30 minutes in 1×SHMCK (20 mM Hepes, 120 mM NaCl, 5 mM KCl, 1 mM MgCl₂, 1 mM CaCl₂, pH 7.4) plus 0.1 mg/mL tRNA for a final volume of 20 μL. The binding reactions were analyzed by nitrocellulose filtration using a Minifold I dot-blot, 96-well vacuum filtration manifold (Schleicher & Schuell, Keene, N.H.). A three-layer filtration medium was used, consisting (from top to bottom) of Protran nitrocellulose (Schleicher & Schuell), Hybond-P nylon (Amersham Biosciences) and GB002 gel blot paper (Schleicher & Schuell). RNA that is bound to protein is captured on the nitrocellulose filter, whereas the non-protein bound RNA is captured on the nylon filter. The gel blot paper was included simply as a supporting medium for the other filters. Following filtration, the filter layers were separated, dried and exposed on a phosphor screen (Amersham Biosciences, Piscataway, N.J.) and quantified using a Storm 860 Phosphorimager® blot imaging system (Amersham Biosciences).
(§2) When a significant positive ratio of binding of RNA in the presence of h-IL-23 versus in the absence of h-IL-23 was seen, the pools were cloned using a TOPO TA cloning kit (Invitrogen, Carlsbad, Calif.) according to the manufacturer's instructions. For the h-IL-23 and X-IL-23 selections, the Round 8 pool templates were cloned, and 32 individual clones from each selections were assayed in a 1-point dot blot screen (+/−75 nM h-IL-23, as well as a separate screen at +/−75 nM h-IL-12). For the PN-IL-23 selection, the Round 10 pool was cloned and sequenced, and 8 unique clones were assayed for protein binding in a 1-point dot blot screen (+/−200 nM h-IL-23 and a separate screen at +/−200 nM h-IL-12). Subsequently, the Round 10 PN-IL-23 pool was re-cloned for further sequences, as well as the R12 PN-IL-23 pool, and the clones were assayed for protein binding in a 1 point do blot screen (+/−100 nM h-IL-23 or +/−200 nM h-IL-12).

Binder | Kd
B18 | 424 nM
B19 | 256 nM
B20 | 16.6 nM
B21 | 77.8 nM
B22 | 157 nM
B23 | 218 nM
B17 | 105 nM
B24 | 57.7 nM
B25 | 461 nM
B26 | 180 nM
B27 | 111 nM
B28 | 97.9 nM
B29 | 80.3 nM

biological target: IL-12 (human, p35/p40 heterodimer) (Homo sapiens, UniProt P29459;P29460 SEQ:57-253,SEQ:23-328); assay: filter; tRNA; details: not given
Sequence (P29459 23-219, chain 1 of 2): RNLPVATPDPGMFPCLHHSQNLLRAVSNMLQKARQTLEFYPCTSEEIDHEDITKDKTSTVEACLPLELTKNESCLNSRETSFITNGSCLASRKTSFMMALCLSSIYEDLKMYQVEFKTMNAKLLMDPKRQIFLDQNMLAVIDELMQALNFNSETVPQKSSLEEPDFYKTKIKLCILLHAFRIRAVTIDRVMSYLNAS
Sequence (P29460 23-328, chain 2 of 2): as the sequence (P29460 23-328, chain 2 of 2) above
Procedure: as §1, §2

Binder | Kd
B18 | 2910 nM
B19 | 541 nM
B20 | 243 nM
B21 | 1040 nM
B22 | 182 nM
B23 | 905 nM
B17 | 332 nM
B24 | 668 nM
B25 | 289 nM
B26 | 5950 nM
B27 | 934 nM
B28 | 673 nM
B29 | 400 nM
